Data from US20040087498A1, “Modified factor VII” (Novo Nordisk Health Care AG, priority 1991, published 2004).
Like-named read-outs stand apart in the source and are kept apart here.

What was measured:
[1] = biological target: cell-surface tissue factor on baboon smooth muscle cells (baboon)
[2] = biological target: tissue factor preparation, saline extract of baboon brain (baboon)
[3] = biological target: purified recombinant soluble tissue factor
[4] = tested on: Factor VII-deficient plasma; experiment: One-stage clotting assay of coagulant activity; assay type: biochemical, human
Protocol: The ability of the modified Factor VII protein to inhibit clotting was measured in a one-stage clotting assay using wild-type Factor VII as a control. Recombinant proteins were prepared essentially as described above from cells cultured in media containing 5 μg/ml vitamin K. Varying amounts of the modified Factor VII (from clone 544) or recombinant wild-type Factor VII were diluted in 50 mM Tris pH 7.5, 0.1% BSA to 100 μl. The mixtures were incubated with 100 μl of Factor VII-deficient plasma (George King Bio-Medical Inc., Overland Park, Kans.) and 200 μl of thromboplastin C (Dade, Miami, Fla.; contains rabbit brain thromboplastin and 11.8 mM Ca^++). The clotting assay was performed in an automatic coagulation timer (MLA Electra 800, Medical Laboratory Automation Inc., Pleasantville, N.Y.), and clotting times were converted to units of Factor VII activity using a standard curve constructed with 1:5 to 1:640 dilutions of normal pooled human plasma (assumed to contain-one unit per ml Factor VII activity; prepared by pooling citrated […] from healthy donors). […] Factor VII activity is seen as a reduction in clotting time over control samples.

[5] = biological target: T1, tissue factor (thromboplastin) (Oryctolagus cuniculus, UniProt P24055); experiment: One-step clotting mixing assay with a limiting amount of tissue factor; assay type: biochemical, rabbit
T1 construct: contains rabbit brain thromboplastin; purchased Dade, Miami, Fla. thromboplastin-C; host or cells: rabbit brain extract
T1 sequence (P24055 33-292): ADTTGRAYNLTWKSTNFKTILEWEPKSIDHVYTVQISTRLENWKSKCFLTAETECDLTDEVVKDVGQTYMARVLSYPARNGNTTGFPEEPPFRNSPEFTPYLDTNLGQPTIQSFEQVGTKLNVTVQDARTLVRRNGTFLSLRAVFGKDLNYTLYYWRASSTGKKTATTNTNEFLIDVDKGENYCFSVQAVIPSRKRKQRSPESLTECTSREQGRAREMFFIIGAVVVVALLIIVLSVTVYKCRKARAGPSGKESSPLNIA
Protocol: The ability of the modified Factor VII to compete with wild-type Factor VII for tissue factor and inhibit its clotting activity was assessed in a one-step clotting assay in the presence of a limiting amount of tissue factor (thromboplastin).
Clotting times were determined in a one-step assay similar to that described in Example II. A limited amount of tissue factor, a constant amount of wild type Factor VII, and increasing amounts of variant Factor VII were used in the mixing experiments. An inhibition of Factor VII/VIIa procoagulant activity would be seen as an increase in clotting time in assays containing increasing amounts of variant Factor VII.
The amount of Factor VII activity in the test samples was calculated as a percentage of a standard curve that measured Factor VII activity in normal pooled plasma. The standard curve for Factor VII activity was generated using serial dilutions of normal pooled plasma in phosphate buffered solution (PBS) that ranged from 1:5 to 1:640. For this purpose it was assumed that normal plasma contains approximately 500 ng/ml of Factor VII and this was considered to be one unit of activity. A mixture of 100 μl Factor VII-deficient plasma, 100 μl plasma dilution and 200 μl of thromboplastin-C (Dade, Miami, Fla.) was used to measure clotting time on a MLA Electra 800 automatic timer. To establish the standard curve, the results were graphed as percentage of activity (1:5=100% activity) versus clotting time in seconds.
The assay required that the medium containing the wild type and variant Factor VII be composed of less than one percent serum. The dilutions were made in PBS so that clotting times would fall along the standard curve. A minimum dilution of 1:2 was typical. The final volume was 100 μl. Two different human Factor VII Ser344→Ala variants, designated clones “#10” and “#6” were tested in the experiments.

[6] = in vivo; cited from earlier work
[7] = biological target: tissue factor (thromboplastin C, rabbit brain thromboplastin) (rabbit) (UniProt P24055)
[8] = biological target: T2, cell-surface tissue factor on rat vascular smooth muscle cells (rat) (UniProt P42533)
T2 sequence: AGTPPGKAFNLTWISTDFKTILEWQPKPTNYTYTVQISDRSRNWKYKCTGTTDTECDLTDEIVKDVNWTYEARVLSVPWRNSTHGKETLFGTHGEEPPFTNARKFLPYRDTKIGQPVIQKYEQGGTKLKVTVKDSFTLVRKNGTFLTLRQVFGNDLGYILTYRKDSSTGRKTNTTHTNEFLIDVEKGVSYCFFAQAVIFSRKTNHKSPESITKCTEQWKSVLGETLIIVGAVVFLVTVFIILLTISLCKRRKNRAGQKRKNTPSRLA

[9] = biological target: T2, cell-surface tissue factor on rat vascular smooth muscle cells (rat); remark: listed apart in the source
[10] = biological target: purified recombinant soluble tissue factor; remark: listed apart in the source
[11] = biological target: T2, cell-surface tissue factor on rat vascular smooth muscle cells (rat); remark: listed apart in the source
[12] = variant medium 10 μl + B4A1 (wild type) medium 10 μl
[13] = variant medium 20 μl + B4A1 (wild type) medium 10 μl
[14] = variant medium 30 μl + B4A1 (wild type) medium 10 μl
[15] = variant medium 40 μl + B4A1 (wild type) medium 10 μl
[16] = variant medium 50 μl + B4A1 (wild type) medium 10 μl

DEGR-Factor VIIa (from UniProt P08709) (enzyme)
inhibition of Factor Xa chromogenic activity on baboon smooth muscle cells [1]: > 90%
Clotting time [2]: 158 s
OD405 (Factor Xa chromogenic activity, S-2222) [3]: 0.055 OD405

Modified Factor VII (#6): human Factor VII Ser344→Ala variant, clone #6
Clotting time ([4]; dilution 1:1): 33.5 s
Percent FVIIa Activity [5, 12]: 74%
Percent FVIIa Activity [5, 13]: 56%
Percent FVIIa Activity [5, 14]: 46%
Percent FVIIa Activity [5, 15]: 41%
Percent FVIIa Activity [5, 16]: 32%

Modified Factor VII (#10): human Factor VII Ser344→Ala variant, clone #10
Clotting time ([4]; dilution 1:1): 32.5 s
Percent FVIIa Activity [5, 12]: 70%
Percent FVIIa Activity [5, 13]: 51%
Percent FVIIa Activity [5, 14]: 43%
Percent FVIIa Activity [5, 15]: 34%
Percent FVIIa Activity [5, 16]: 28%

Wild-type Factor VII: recombinant wild-type Factor VII used as a control
Clotting time ([4]; dilution 1:20): 19.0 s
Clotting time ([4]; dilution 1:40): 21.5 s
Clotting time ([4]; dilution 1:80): 23.3 s

heparin
half-life [6]: approximately 80 minutes

human Factor VII Ser344→Ala variant (from UniProt P08709) (enzyme)
Percent FVIIa Activity [7]: 28%

human Factor VII Ser344→Ala variant expressed without vitamin K (from UniProt P08709) (enzyme)
Percent FVIIa Activity [7]: 78%

recombinant human Factor VIIa (from UniProt P08709) (enzyme)
OD405 (Factor Xa chromogenic activity, S-2222) [8]: 0.36 OD405
OD405 (Factor Xa chromogenic activity, S-2222) [9]: 0.342 OD405
OD405 (Factor Xa chromogenic activity, S-2222) [10]: 0.79 OD405
OD405 (Factor Xa chromogenic activity, S-2222) [11]: 0.208 OD405

B1: #10 (−K): Ser344→Ala variant clone #10 expressed by cells grown without vitamin K (protein, UniProt P08709 1-466, looked up, variant S344A)
chain: MVSQALRLLCLLLGLQGCLAAGGVAKASGGETRDMPWKPGPHRVFVTQEEAHGVLHRRRRANAFLEELRPGSLERECKEEQCSFEEAREIFKDAERTKLFWISYSDGDQCASSPCQNGGSCKDQLQSYICFCLPAFEGRNCETHKDDQLICVNENGGCEQYCSDHTGTKRSCRCHEGYSLLADGVSCTPTVEYPCGKIPILEKRNASKPQGRIVGGKVCPKGECPWQVLLLVNGAQLCGGTLINTIWVVSAAHCFDKIKNWRNLIAVLGEHDLSEHDGDEQSRRVAQVIIPSTYVPGTTNHDIALLRLHQPVVLTDHVVPLCLPERTFSERTLAFVRFSLVSGWGQLLDRGATALELMVLNVPRLMTQDCLQQSRKVGDSPNITEYMFCAGYSDGSKDSCKGDAGGPHATHYRGTWYLTGIVSWGQGCATVGHFGVYTRVSQYIEWLQKLMRSEPRPGVLLRAPFP
modifications: expressed without vitamin K
notes: Ser344→Ala variant clone #10 expressed by cells grown without vitamin K
Percent FVIIa Activity [5, 13]: 78%

B2: #6 (−K): Ser344→Ala variant clone #6 expressed by cells grown without vitamin K (protein, UniProt P08709 1-466, looked up, variant S344A)
chain: MVSQALRLLCLLLGLQGCLAAGGVAKASGGETRDMPWKPGPHRVFVTQEEAHGVLHRRRRANAFLEELRPGSLERECKEEQCSFEEAREIFKDAERTKLFWISYSDGDQCASSPCQNGGSCKDQLQSYICFCLPAFEGRNCETHKDDQLICVNENGGCEQYCSDHTGTKRSCRCHEGYSLLADGVSCTPTVEYPCGKIPILEKRNASKPQGRIVGGKVCPKGECPWQVLLLVNGAQLCGGTLINTIWVVSAAHCFDKIKNWRNLIAVLGEHDLSEHDGDEQSRRVAQVIIPSTYVPGTTNHDIALLRLHQPVVLTDHVVPLCLPERTFSERTLAFVRFSLVSGWGQLLDRGATALELMVLNVPRLMTQDCLQQSRKVGDSPNITEYMFCAGYSDGSKDSCKGDAGGPHATHYRGTWYLTGIVSWGQGCATVGHFGVYTRVSQYIEWLQKLMRSEPRPGVLLRAPFP
modifications: expressed without vitamin K
notes: Ser344→Ala variant clone #6 expressed by cells grown without vitamin K
Percent FVIIa Activity [5, 13]: 85%
